Laboratory results as given in publication PMC5741622, “Structure of a Wbl protein and implications for NO sensing by M. tuberculosis” (Nature Communications, 2017).

B1: Mycobacterium tuberculosis WhiB1, untagged, [4Fe-4S] form (holo-WhiB1), co-expressed with His-tagged σ^A or σ^ACTD (natural protein)
chain: MDWRHKAVCRDEDPELFFPVGNSGPALAQIADAKLVCNRCPVTTECLSWALNTGQDSGVWGGMSEDERRALKRRNARTKARTGV
modifications: [4Fe-4S] cluster coordinated by cysteine residues 9, 37, 40 and 46
notes: Iron-sulfur cluster assembled in vivo; free [4Fe-4S]; WhiB1 seen at 9668 Da and apo-WhiB1 at 9315 Da in native ESI-MS; also called [4Fe-4S]-WhiB1; untagged WhiB1
B2: His-tagged C-terminal domain (amino acids Ala447-Asp528) of M. tuberculosis σ^A (domain or fragment)
chain: AVDAVSFTLLQDQLQSVLDTLSEREAGVVRLRFGLTDGQPRTLDEIGQVYGVTRERIRQIESKTMSKLRHPSRSQVLRDYLD
notes: A thrombin cleavage site lies between the His6 tag and the domain; seen at 11,522 Da in native ESI-MS; also called His-σ^ACTD; σ^ACTD; not shown: His6, N-terminal, kept

Columns and labels:
[1] = target: B2; assay: native MS; details: both partners purified
[2] = target: B1; assay: pull-down; details: partners not purified
[3] = target: T1, M. tuberculosis σ^ACTD fused to the T18 domain of Bordetella pertussis adenylate cyclase (Mycobacterium tuberculosis, UniProt P9WGI1 447-528); assay: two-hybrid; details: partners not purified
T1 construct: also called T18-σ^ACTD
T1 sequence: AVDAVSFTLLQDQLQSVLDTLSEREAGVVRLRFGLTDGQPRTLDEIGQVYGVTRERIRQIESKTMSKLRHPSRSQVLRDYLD

Binder: B1
- stoichiometry N [1]: 1

Binder: B2
- binding result [2]: binds

B3: M. tuberculosis WhiB1 fused to the T25 domain of Bordetella pertussis adenylate cyclase (natural protein)
chain: MDWRHKAVCRDEDPELFFPVGNSGPALAQIADAKLVCNRCPVTTECLSWALNTGQDSGVWGGMSEDERRALKRRNARTKARTGV
notes: also called T25-WhiB1
- β-galactosidase activity against the negative control (vectors only) [3]: ~20 fold
- β-galactosidase activity against the positive control (Zip-Zip) [3]: ~3 fold lower
